Data reported in patent US20260070974A1 (NONA BIOSCIENCES SUZHOU, published 2026).

T1: human Siglec-15 ECD-his protein (Acrobiosystems, Cat #: SG5-H52H3) (human, UniProt Q6ZMC9 20-263)
T1 construct: Bought protein; only its extracellular domain stood in the assay; also called human Siglec-15 protein; recombinant human Siglec-15 protein; not shown: his tag
T1 sequence: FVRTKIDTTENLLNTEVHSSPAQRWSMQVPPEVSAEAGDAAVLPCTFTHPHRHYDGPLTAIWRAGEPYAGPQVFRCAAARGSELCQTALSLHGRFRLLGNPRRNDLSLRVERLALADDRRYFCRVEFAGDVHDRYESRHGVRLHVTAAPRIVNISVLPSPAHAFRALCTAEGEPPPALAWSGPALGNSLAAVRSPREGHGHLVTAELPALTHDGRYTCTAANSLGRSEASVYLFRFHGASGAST

T2: cynomolgus monkey Siglec-15-his protein (Acrobiosystems, Cat #: SG5-C52H6) (cynomolgus monkey, UniProt Q6ZMC9 20-263 (human entry))
T2 construct: Bought protein; also called cynomolgus monkey Siglec-15 protein; not shown: his tag
T2 chain: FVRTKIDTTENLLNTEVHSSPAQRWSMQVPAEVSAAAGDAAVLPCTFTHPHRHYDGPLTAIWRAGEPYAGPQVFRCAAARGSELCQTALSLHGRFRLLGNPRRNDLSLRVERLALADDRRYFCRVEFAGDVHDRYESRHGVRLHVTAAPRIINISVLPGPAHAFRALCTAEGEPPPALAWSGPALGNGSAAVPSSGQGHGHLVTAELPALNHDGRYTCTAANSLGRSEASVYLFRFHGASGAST

T3: human Siglec-15 on CHO-K1/human Siglec-15 cells (KYinno, Beijing) (human, UniProt Q6ZMC9 20-328)
T3 sequence: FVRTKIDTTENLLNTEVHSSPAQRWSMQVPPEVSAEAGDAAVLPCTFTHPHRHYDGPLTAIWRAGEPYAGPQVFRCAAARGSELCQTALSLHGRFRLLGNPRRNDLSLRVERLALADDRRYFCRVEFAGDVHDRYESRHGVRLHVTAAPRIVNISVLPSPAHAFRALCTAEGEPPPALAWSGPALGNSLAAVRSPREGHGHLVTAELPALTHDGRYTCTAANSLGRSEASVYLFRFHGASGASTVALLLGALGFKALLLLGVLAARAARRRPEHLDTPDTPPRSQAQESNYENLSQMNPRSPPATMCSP


Key:
[1] = molecular target: T4, mouse Siglec-15-his protein (Acrobiosystems, Cat #: SG5-M52H7) (mouse); assay: ELISA, coated mouse Siglec-15-his
T4 construct: Bought protein; also called mouse Siglec-15 protein
Experimental: (§1) […] mouse Siglec-15-his protein (Acrobiosystems, Cat #: SG5-M52H7) dissolved in PBS was added to an ELISA plate at 100 μL/well for coating and the plate was incubated overnight at 4° C. The ELISA plate was then blocked with PBST (PBS+0.05% Tween 20) containing 2% BSA at 200 μL/well and incubated at 37° C. for 1 h. The ELISA plate was washed 4 times with PBST. The anti-Siglec-15 antibody diluted in a gradient (5-fold dilution, starting concentration: 6.67 nM) was added to the ELISA plate at 100 μL/well and the plate was incubated at 37° C. for 1 h. The ELISA plate was washed 4 times with PBST. The goat anti-human IgG (H+L)-HRP (1:5000, Jackson, Cat: 109-035-088) was added at 100 μL/well and the plate was incubated at 37° C. for 1 h. The ELISA plate was washed 4 times with PBST. The TMB substrate (Biopanda, Cat: TMB-S-003) was added at 100 μL/well, and the plate was incubated at room temperature for 5 min, and then the stop buffer (Solarbio, Cat #: C1058) was added at 100 μL/well to stop the reaction.

[2] = molecular target: T1, human Siglec-15 ECD-his protein …; assay: ELISA, coated human Siglec-15 ECD-his
Experimental: as §1, with “human Siglec-15 ECD-his” for “mouse Siglec-15-his”, “SG5-H52H3)” for “SG5-M52H7)”, “Cat #:” for “Cat:”

[3] = molecular target: T2, cynomolgus monkey Siglec-15-his protein …; assay: ELISA, coated cynomolgus monkey Siglec-15-his
Experimental: […] cynomolgus monkey Siglec-15-his protein (Acrobiosystems, Cat #: SG5-C52H6) dissolved in PBS was added to an ELISA plate at 100 μL/well for coating and the plate was incubated overnight at 4° C. The ELISA plate was then blocked with PBST (PBS+0.05% Tween 20) containing 2% BSA at 200 μL/well and incubated at 37° C. for 1 h. The ELISA plate was washed 4 times with PBST. The anti-Siglec-15 antibody diluted in a gradient (5-fold dilution, starting concentration: 6.67 nM) was added to the ELISA plate at 100 µL/well and the plate was incubated at 37° C. for 1 h. The ELISA plate was washed 4 times with PBST. The goat anti-human IgG (H+L)-HRP (1:5000, Jackson, Cat #: 109-035-088) was added at 100 μL/well and the plate was incubated at 37° C. for 1 h. The ELISA plate was washed 4 times with PBST. The TMB substrate (Biopanda, Cat #: TMB-S-003) was added at 100 μL/well, and the plate was incubated at room temperature for 5 min, and then the stop buffer (Solarbio, Cat #: C1058) was added at 100 μL/well to stop the reaction.

[4] = molecular target: T3, human Siglec-15 on CHO-K1/human …; assay: flow cytometry on CHO-K1/human Siglec-15 cells
Experimental: CHO-K1/human Siglec-15 cells (KYinno, Beijing) were adjusted to a density of 1×10⁶/mL with PBS, and the cell suspension was added to a 96-well V-bottom plate at 100 μL/well. The 96-well V-bottom plate was centrifuged at 1000 rpm for 5 min and washed once with PBS+2% FBS. The cells were resuspended in […] of antibody diluted in a gradient (5-fold dilution, starting concentration: 500 nM) and incubated at 4° C. for 1 h, and PR300066 and hIgG1 were used as positive control and negative control, respectively. After 1 h, the cells were washed twice with PBS+2% FBS. The cells were incubated with 100 μL of Alexa Fluor 488 goat anti-human IgG (Jackson, Cat #: 109-545-098) at 4° C. for 1 h in the dark and then washed twice with PBS+2% FBS. The cells were then resuspended in 200 μL of PBS+2% FBS. The fluorescence intensity of the cells was analyzed using a BD FACSCanto™ II flow cytometer.

[5] = molecular target: T1, human Siglec-15 ECD-his protein …; assay: BLI (Octet RED96), antibody on AHC sensor, Siglec-15 ECD-his as analyte
Experimental: Recombinant Human Siglec-15 Protein Affinity was determined using an Octet RED96 instrument (ForteBio) and an anti-human IgG Fc capture sensor (AHC biosensor, ForteBio, Cat #: 18-5060) according to the detailed procedures and methods provided by the manufacturer. Specifically, candidate antibodies were each diluted to a final concentration of 6 µg/mL and directly immobilized on AHC biosensors for kinetic measurements. The antigenic protein Siglec-15 ECD-his protein (Acrobiosystems, Cat #: SG5-H52H3) was diluted with 10× Kinetics buffer to 3 concentrations of 60 nM, 30 nM, and 15 nM separately and injected as the analyte for 120 s with a dissociation time of 400 s and then subjected to regeneration with 10 mM glycine HCl (pH 1.5) for 15 s. The association rate (kon) and dissociation rate (kdis) were calculated using a simple one-to-one Languir binding model (Octet Red96 data analysis software). The equilibrium dissociation constant (kD) was calculated as the ratio of kdis/kon.

Row | EC50 [1] [nM] | EC50 [2] [nM] | EC50 [3] [nM] | EC50 [4] [nM] | Maximum (MFI) [4] [MFI] | Kd [5] [nM] | koff [5] [s⁻¹] | kon [5] [M⁻¹ s⁻¹] | Binder
1 | 0.104 | 0.02 | 0.071 | – | – | – | – | – | PR300526 (antibody, human IgG1, kappa, V domains shown) VH: QVQLVQSGAEVKKPGASVKVSCKASGYTFTDYYMHWVRQAPGQGLEWMGWINPNSDGTNYAQRFQGRVTMTRDTSISTAYMELSRLRSDDTAVYYCARGRLLRFFDWLDVMDAWGQGTSVTVSS VL: not shown
2 | 0.013 | 0.01 | ~0.011 | 3.45 | 24000 | 0.00305 | 3.25e-06 | 1.07e+06 | PR300659 (antibody, human IgG1, kappa, V domains shown) VH: QVQLVESGGGVVQPGRSLRLSCAASGFIFSSYDIYWVRQAPGKGLEWVAVIWHDGSNKYYADSVKGRFTISRDNSKNTVYLQMNSLRAEDTAVYYCARDTHSYGSRIYYDYNYGMDVWGQGTTVTVSS VL: DIQMTQSPSSLSASVGDRVSITCRASQSISSYLNWYQQKPGKAPKLLIYAASSLQSGVPSRFSGSGSGADFTLTISSLQPEDFATYYCQQTYSPPFTFGPGTKVDIKR
3 | 0.079 | 0.018 | 0.025 | 1.49 | 16600 | 0.0858 | 3.09e-05 | 361000 | PR300670 (antibody, human IgG1, kappa, V domains shown) VH: QVQLVESGGGVVQPGRSLRLSCVASGFTFSTYGIHWVRQAPGKGLDWVSVIWYDGSHKYYADSVQDRFTISRDNSKNTLYLQMNSLRAEDTAVYYCAREGMITMVRGVIIDYQYHGMDVWGQGTTVTVSS VL: DIQMTQSPSTLSASVGDRVTITCRASQSIGRRLAWYQQKPGKAPKLLIYKASSLESGVPSRFSGSGSGTEFTLTISSPQPDDFATYYCQQYHSYSYTFGQGTKLEIKR
